Laboratory results: patent publication US20130330414A1

Molecular target: 8.3-TCR on 8.3-CD8+ T-cells of 8.3-TCR-transgenic NOD mice
Test: cell-based or functional assay

IGRP206-214/K^d pMHC complex, sequence (P01902 22-305, one chain of several): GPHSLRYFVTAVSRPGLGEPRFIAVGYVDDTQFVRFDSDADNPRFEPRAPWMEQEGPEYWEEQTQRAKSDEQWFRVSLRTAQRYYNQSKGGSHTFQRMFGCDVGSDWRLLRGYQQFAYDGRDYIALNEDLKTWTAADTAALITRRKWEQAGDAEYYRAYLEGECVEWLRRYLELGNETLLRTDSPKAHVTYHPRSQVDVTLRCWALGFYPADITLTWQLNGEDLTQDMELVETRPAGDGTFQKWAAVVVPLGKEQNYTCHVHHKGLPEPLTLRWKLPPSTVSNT

IFNγ responses (ng/mL); NP IGRP-SFP-011411, Fe3O4 8 nm, pMHC valency 54, 5 × 10^11 NPs/mL: 2.3 ng/mL | IFNγ responses (ng/mL); NP IGRP-SFP-012011, Fe3O4 8 nm, pMHC valency 14, 5 × 10^11 NPs/mL: 0.2 ng/mL | IFNγ responses (ng/mL); NP IGRP-SFP-031511, Fe3O4 8 nm, pMHC valency 15, 5 × 10^11 NPs/mL: 0.15 ng/mL | IFNγ responses (ng/mL); NP IGRP-SFP-051211, Fe3O4 8 nm, pMHC valency 31, 5 × 10^11 NPs/mL: 0.7 ng/mL | IFNγ responses (ng/mL); NP IGRP-SFP-100711, Fe3O4 8 nm, pMHC valency 39, 5 × 10^11 NPs/mL: 0.9 ng/mL | IFNγ responses (ng/mL); NP IGRP-SFP-102912, Fe3O4 8 nm, pMHC valency 11, 5 × 10^11 NPs/mL: 0.4 ng/mL | IFNγ responses (ng/mL); NP IGRP-SFPM-110512, Fe3O4 8 nm, pMHC valency 8, 5 × 10^11 NPs/mL: 0.03 ng/mL
Substance: IGRP206-214/K^d pMHC complex (from UniProt Q9Z186 206-214; P01902 22-305) (peptide-MHC)
